Experimental data taken from EP4628505A1 (Genor Biopharma Co., Ltd., dated 2025).
Changes are numbered by the printed parent chain.

B1: GBD008-S019 (antibody, V domains shown)
VH: QVQLVESGGGLVQPGGSLTLSCAASGFTFSSYTMAWYRQAPGKEREVVAGISRSGGTTNYGDSVKGRFTISRDNAKNTVYLQMNSLKPEDTAVYYCRAVSDYWGQGTQVTVSS
notes: Heavy chain-only antibody (VHH-Fc), no light chain; also called GBD008-5019
B2: GBD008-hS019-4 (antibody, V domains shown)
VH: B1 VH with Q1E, V5L, T19R, A75S, V79L, K87R, P88A, Q108L
notes: Humanized heavy chain-only antibody (VHH-Fc), no light chain
B3: GBD008-S004 (antibody, V domains shown)
VH: EVQLVESGGGLVQAGGSLRLSCLASGRTFSSYDMGWFRQAPGKEREFVAAISWGGVNTYYADSVKGRFTISRDNAKNTVYLQMNSLKPEDTAVYYCARGSAPYSSSRSSAQETYAQWGQGTQVTVSS
notes: Heavy chain-only antibody (VHH-Fc), no light chain
B4: GBD008-hS004-5 (antibody, V domains shown)
VH: B3 VH with A14P, L23A, V79L, K87R, P88A, Q122L
notes: as for B2
B5: GBD008-hS005-3 (antibody, V domains shown)
VH: EVQLVESGGGLVQPGGSLRLSCAASGRTASSNAMAWVRQAPGKEREFVSAISATGGLTAYADSVKGRFTISRDNSKNTLYLQMNSLRAEDTAVYYCAVGRERWYLRHTENEYDYWGQGTLVTVSS
notes: as for B2
B6: GBD008-hS005-3-2 (antibody, V domains shown)
VH: B5 VH with V37F
notes: as for B2

Tests used:
[1] = biological target: T1, mouse CTLA4 (Acro Biosystem, Catlog #CT4-M52H5) (mouse, UniProt P09793 36-161); experiment: ELISA, plate coated with 1 ug/ml mouse CTLA4
T1 construct: Bought protein

recombinant human CTLA-4 = biological target: T2, recombinant human CTLA-4 (human, UniProt P16410 36-161, limits assumed); experiment: Octet (BLI), 1:1 binding model
T2 construct: also called CTLA4 antigen
T2 sequence (looked up): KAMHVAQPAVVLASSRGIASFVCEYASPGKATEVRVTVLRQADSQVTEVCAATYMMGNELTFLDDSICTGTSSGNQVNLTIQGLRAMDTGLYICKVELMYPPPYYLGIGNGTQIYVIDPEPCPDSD

binding result [1] | Kd (recombinant human CTLA-4) [nM] | koff (recombinant human CTLA-4) [s⁻¹] | kon (recombinant human CTLA-4) [M⁻¹ s⁻¹] | Binder
no binding | 0.165 | 4.35e-05 | 263000 | B1
no binding | 0.236 | 7.13e-05 | 302000 | B2
no binding | 28.9 | 0.00501 | 173000 | B3
no binding | 27.9 | 0.00671 | 241000 | B4
no binding | 0.524 | 9.91e-05 | 189000 | B5
no binding | 0.53 | 0.000114 | 214000 | B6
